Values quoted from earlier work, collected in publication PMC4785862.
Read-outs that look alike come from different tables or passages of the source.

What was measured:
IL-8 (Homo sapiens) [1] = target: IL-8 (Homo sapiens) (UniProt P10145)
IL-8 (Homo sapiens) [2] = target: IL-8 (Homo sapiens) (UniProt P10145); remark: listed apart in the source

Chain of IL-8 (Homo sapiens) (P10145 28-99): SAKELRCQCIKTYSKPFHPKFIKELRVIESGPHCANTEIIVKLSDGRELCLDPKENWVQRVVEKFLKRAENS
Chain of CXCR2 (P25025 whole entry): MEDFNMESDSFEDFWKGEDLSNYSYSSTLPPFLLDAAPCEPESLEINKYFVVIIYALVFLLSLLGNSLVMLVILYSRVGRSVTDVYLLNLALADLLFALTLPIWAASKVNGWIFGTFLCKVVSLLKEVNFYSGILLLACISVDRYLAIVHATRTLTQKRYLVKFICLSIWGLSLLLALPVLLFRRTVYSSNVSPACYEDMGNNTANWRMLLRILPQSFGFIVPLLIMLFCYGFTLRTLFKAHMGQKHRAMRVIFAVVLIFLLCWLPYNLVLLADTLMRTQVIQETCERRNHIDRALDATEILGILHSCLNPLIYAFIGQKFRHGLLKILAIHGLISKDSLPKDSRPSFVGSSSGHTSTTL
Chain of CXCR1 (P25024 whole entry): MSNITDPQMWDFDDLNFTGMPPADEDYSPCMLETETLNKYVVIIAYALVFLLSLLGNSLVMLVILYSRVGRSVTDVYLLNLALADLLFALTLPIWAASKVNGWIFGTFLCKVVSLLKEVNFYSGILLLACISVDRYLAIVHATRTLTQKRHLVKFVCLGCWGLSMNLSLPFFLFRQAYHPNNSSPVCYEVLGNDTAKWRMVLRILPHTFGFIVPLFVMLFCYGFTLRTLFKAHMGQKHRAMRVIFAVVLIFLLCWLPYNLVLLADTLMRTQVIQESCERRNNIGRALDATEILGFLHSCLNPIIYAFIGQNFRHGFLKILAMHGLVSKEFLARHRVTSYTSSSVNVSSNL

Row | Kd (IL-8 (Homo sapiens) [1]) | Kd (IL-8 (Homo sapiens) [2]) | Substance
1 | 2.5 nM | – | CXCR2 (from UniProt P25025)
2 | – | 5 nM | CXCR1 (from UniProt P25024)
